Source: article PMC10029155 (2023)
Where no end group is shown, it is not given here.

These binders were tested against cathepsin B (Homo sapiens, UniProt P07858) (assay: square wave voltammetry).

Row | Binder | Kd [nM]
1 | SSTTNSNSTSNTK-biotin [CTSB BP3, listing 1 of 2 here] | 11.6
2 | SSTTNSNSTSNTK-biotin [CTSB BP3, listing 2 of 2 here] | 50.8
3 | WDMWPSMDWKAE (also: displayed on M13 phage pIII) [CTSB 4-1 phage-displayed peptide] | 73.7
